The text below walks through data of EP4793287A1, “TUMOR MICROENVIRONMENT SPECIFICALLY ACTIVATED CD47 ANTIBODY” (Affinity (Shanghai) Biopharmaceutical Co., Ltd., priority 2023, dated 2025).

Assay [1] addresses T1, CD47 on CHOK1-CD47 cells (UniProt Q08722 19-323).
T1 construct: whole, on cells; The rabbits were immunized with human CD47, so human is likely
Kind of assay: flow cytometry on CHOK1-CD47 cells. (In general: A flow cytometer gives signals particle by particle.)

Assay [2] deals with antibody antigen (CD47) coated in the ELISA of Example 3 (UniProt Q08722). Kind of assay: ELISA on coated antigen, ratio against wild-type 70H1.
Assay [3] deals with T1, CD47 on CHOK1-CD47 cells. Kind of assay: flow cytometry on CHOK1-CD47 cells. The source holds these as a separate data set.
The target of assay [4] is T2, human CD47 antigen (immobilized on CM5 chip, Biacore) (human, UniProt Q08722 19-139, limits assumed). Kind of assay: SPR (Biacore T200), CD47 antigen on CM5 chip, antibody as analyte, 1:1 model. On the technique in general: SPR reads the build-up and loss of mass on a sensor chip optically.
Assay [5] concerns the target T3, Recombinant human CD47 protein (DIMA BIOTECH, Cat# PME-100008) (human, UniProt Q08722 19-139, limits assumed).
T3 construct: Bought protein, coated on ELISA plates; also called CD47 antigen
Kind of assay: ELISA on coated recombinant human CD47. (In general: An ELISA detects its analyte on a solid surface through an enzyme-linked reagent.)

Assay [6] addresses T1, CD47 on CHOK1-CD47 cells. Kind of assay: flow cytometry on CHOK1-CD47 cells. This is another data set of the same source.
Assay [7] addresses T4, CD47 on Raji cells (human, UniProt Q08722 19-323).
T4 construct: whole, on cells
Kind of assay: flow cytometry on Raji cells.

For assay [8], the target named is T3, Recombinant human CD47 protein (DIMA …). Kind of assay: ELISA on coated recombinant human CD47. This is another data set of the same source.
The target in assay [9] is T2, human CD47 antigen (immobilized on CM5 …). Kind of assay: SPR (Biacore T200).
Assay [10] deals with T4, CD47 on Raji cells. Kind of assay: flow cytometry on Raji cells. This is another data set of the same source.

Changes are numbered by the printed parent chain. Numbers in names are those of the source. Read-outs that look alike come from different tables or passages of the source.

T4 sequence (Q08722 19-323): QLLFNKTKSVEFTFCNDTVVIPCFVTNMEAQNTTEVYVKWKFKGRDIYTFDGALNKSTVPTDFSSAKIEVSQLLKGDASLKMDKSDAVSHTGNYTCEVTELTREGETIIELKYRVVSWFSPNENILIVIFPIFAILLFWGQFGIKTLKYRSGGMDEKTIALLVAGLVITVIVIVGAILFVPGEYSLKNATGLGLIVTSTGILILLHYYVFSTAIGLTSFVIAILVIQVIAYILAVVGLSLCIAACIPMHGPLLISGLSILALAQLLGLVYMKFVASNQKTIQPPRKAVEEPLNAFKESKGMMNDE
T1 sequence (Q08722 19-323 limits assumed): as the sequence (Q08722 19-323) above
T2 sequence (Q08722 19-139 limits assumed): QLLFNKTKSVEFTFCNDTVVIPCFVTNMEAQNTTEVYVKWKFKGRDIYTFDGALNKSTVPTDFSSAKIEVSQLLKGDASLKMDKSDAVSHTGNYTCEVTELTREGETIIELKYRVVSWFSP
T3 sequence (Q08722 19-139 limits assumed): as above
antibody antigen (CD47) coated in the ELISA of Example 3, sequence (Q08722 19-139 limits assumed): as above

B1: 71D6 (antibody, V domains shown)
VH: QSLEESGGDLVKPGASLTLTCTASGFSFSTSYWIYWVRQAPGKGLELIACIATGSDGSTYYASWASGRFTISKTSSTTVTLQMTSLTAADTATYFCAREAGNGVYNLWGQGTLVTVSS
VL: AYDMTQTPASVEVAVGGTVTIKCQASESIRNALAWYQQKPGQPPKLLISGASKLASGVASRFKGSGSATEFTLTISDLECADAATYYCQQYYSSSNVDNGFGGGTEVVVK
notes: Recombinant rabbit monoclonal antibody expressed in Expi293; it was detected with anti-human IgG Fc
Regarding B1, a half-maximal effect in assay [1] (EC50) was put at 3.8 nM.

B2: 70G1 (antibody, V domains shown)
VH: QSVKESEGGLFKPTDTLTLTCTVSGFSLSNYAINWVRQAPGNGLEWIGIINGYGMTYYASWAKSRSTITRNTSENTVTLKLTSLTAADTATYFCARDRYGSYVGYSSDIWGPGTLVTVSS
VL: AYDMTQTPASVEAAVGGTVTIKCQASQNISSRLAWYQQKPGQPPKLLIYGTSTLASGVPSRFRGSGSGTQFSLTISDLECADAATYYCQHGYYYSSSFTTYNAFGGGTEVVVK
notes: as for B1
Molecule B2 showed an EC50 in assay [1] of 2.88 nM.

B3: 70H1 mutant VH-33 Y to C (antibody, V domains shown)
VH: QQQLEESGGGLVKPEGSLTLTCTASGFSFSSGCDMCWVRQAPGRGLEWIACIYTRSSGGTYYASWAKGRFTISKTSSTVDLRMTSLTAADTATYFCAGGRSSYRLNLWGQGALVTVSS
VL: DVVMTQTPSPVEAAVGGTVTIKCQASQSISNELSWYQQKPGQPPKLLIYRASTLESGVSSRFKGSGSGTEFTLTISDLECADAATYYCQSTFYGDYGNAFGGGTEVVVK
On to B3, for which the Mutant Binding Strength (EC50 post-mutation / EC50 wild-type) in assay [2] turned out to be 1.

B4: 70H1 mutant VL-92 F to C (antibody, V domains shown)
VH: B3 VH with C33Y
VL: B3 VL with F92C
Take B4: the Mutant Binding Strength (EC50 post-mutation / EC50 wild-type) in assay [2] came to 1.3.

B5: 70H1 mutant VL-93 Y to C (antibody, V domains shown)
VH: B3 VH with C33Y
VL: B3 VL with Y93C
As for B5, in assay [2], the Mutant Binding Strength (EC50 post-mutation / EC50 wild-type) turned out to be 1.

B6: 70H1 mutant VL-98 N to C (antibody, V domains shown)
VH: B3 VH with C33Y
VL: B3 VL with N98C
Consider B6, for which the Mutant Binding Strength (EC50 post-mutation / EC50 wild-type) in assay [2] stood at 1.

B7: 70H1 mutant VL-49 Y to C (antibody, V domains shown)
VH: B3 VH with C33Y
VL: B3 VL with Y49C
Take B7: in assay [2], the Mutant Binding Strength (EC50 post-mutation / EC50 wild-type) was 0.9.

B8: 70H1 mutant VL-27 Q to C (antibody, V domains shown)
VH: B3 VH with C33Y
VL: B3 VL with Q27C
B8: the Mutant Binding Strength (EC50 post-mutation / EC50 wild-type) in assay [2] stood at 1.

B9: 70H1 mutant VL-53 T to C (antibody, V domains shown)
VH: B3 VH with C33Y
VL: B3 VL with T53C
Regarding B9, in assay [2], the Mutant Binding Strength (EC50 post-mutation / EC50 wild-type) amounted to 1.

B10: 70H1 mutant VL-96 Y to C (antibody, V domains shown)
VH: B3 VH with C33Y
VL: B3 VL with Y96C
B10: in assay [2], the Mutant Binding Strength (EC50 post-mutation / EC50 wild-type) was determined as 1.

B11: 70H1 (antibody, V domains shown)
VH: B3 VH with C33Y
VL: B3 VL
notes: Rabbit-derived variable regions; also called 70H1.IgG1; 70H1 antibody
B11: the EC50 in assay [3] was determined as 0.35 nM; in [5], 0.12 nM; in assay [6] it was 0.38 nM; in [1], 0.91 nM. The affinity in assay [4], expressed as Kd, was 0.0308 nM. In addition, the koff in [4] was found to be 0.00014 s⁻¹. For the same molecule, in assay [4], the kon was 4.54e+06 M⁻¹ s⁻¹.

B12: 70H1 mutant VH-65 W to C (antibody, V domains shown)
VH: B3 VH with C33Y, W65C
VL: B3 VL
In the case of B12, the Mutant Binding Strength (EC50 post-mutation / EC50 wild-type) in assay [2] stood at 0.8.

B13: 74F1 (antibody, V domains shown)
VH: QQQLEESGGDLVKPEGSLTLTCTASGFSFSSRYNMCWVRQAPGKGLEWIACIYTGSSGSTYYASWAKGRFTISKTSSTVDLKMTSLTAADTATYFCAGGSYSYRLNLWGQGTLVTVSS
VL: B3 VL with S9A, P10S, E12S, A13T, K63S, S90A, F92G, Y96F
notes: as for B1
For the molecule B13, the half-maximal effective concentration (EC50) in assay [1] was 2.82 nM.

B14: 70H1.IgG1.Y61C (antibody, V domains shown)
VH: B3 VH with C33Y, Y61C
VL: B3 VL
notes: IgG1; also called 70H1 IgG1-mutation; 70H1 mutant VH-61 (Y-C)
Take B14: the EC50 in assay [7] came out at 0.47 nM; in [5] it was 0.07 nM; in assay [6], 0.39 nM. In [2], the Mutant Binding Strength (EC50 post-mutation / EC50 wild-type) amounted to 1.

B15: CD47 TMEAbody activated (antibody, IgG1, V domains shown)
VH: B3 VH with C33Y, Y61C
VL: B3 VL
modifications: Cys 61 (Y61C): 20K PEG blocker cleaved off by legumain (asparaginyl endopeptidase); what remains on the Cys is not stated
notes: The CD47 TMEAbody after treatment with legumain / asparaginyl endopeptidase; IgG1
In the case of B15, the values for the EC50 in assay [7], in assay [5] and in assay [6] were 0.24 nM, 0.15 nM and 0.91 nM, respectively.

B16: 70H1 mutant VH-55 R to C (antibody, V domains shown)
VH: B3 VH with C33Y, R55C
VL: B3 VL
For B16, the Mutant Binding Strength (EC50 post-mutation / EC50 wild-type) in assay [2] is 1.

B17: CD47 TMEAbody (70H1.IgG1.Y61C + 20K PEG) (antibody, V domains shown)
VH: B3 VH with C33Y, Y61C
VL: B3 VL
modifications: Cys 61 (Y61C) conjugated with PEG of approximately 20K molecular weight (blocker, cleavable by legumain)
notes: IgG1; The same question of backbone applies as for 70H1.IgG1.Y61C; also called 70H1 TMEAbody; 70H1; IgG1 + 20K PEG
As for B17, the EC50 in [7] was found to be 31.9 nM; in [5] it was 0.72 nM; in [6], 7.6 nM. The molecule further registered a Kd in assay [4] of 14.1 nM. In [4], this molecule returned a koff of 0.000343 s⁻¹. This molecule also came in with a kon in assay [4] of 24400 M⁻¹ s⁻¹. The “fold weaker binding affinity compared to 70H1” value in assay [8] was roughly 7 fold. The “fold decrease of affinity compared to 70H1” value in assay [9] came out at 470 fold. Moreover, the “fold lower binding compared to 70H1” value in assay [10] is roughly 60 fold; in assay [1], roughly 20 fold.

B18: 69F12 (antibody, V domains shown)
VH: QSVEESEGGLFKPTDTLTLTCTISGFSLSNYDMIWVRQAPGNGLEYIGIISSRDKAGHAAWAKRRSTITRNPKENTVTLKMTSLTVADTATYFCARRFSSMHGLDIWGPGTLVTVSS
VL: AYDMTQTPSSVSAAVGGTVTIKCQASQSISNYLSWYQQKPGQPPKLLIYLASTLASGVPSRFKGSGSGTQFTLTISGVQCADAATYYCQQGYSSDSVDNVFGGGTEVVVK
notes: as for B1
As to B18, in assay [1], it took 0.8 nM to reach a half-maximal effect (EC50).

B19: 70H1-VH2VL2 (antibody, V domains shown)
VH: QQQLVESGGGVVQPGGSLRLSCAASGFTFSSGYDMCWVRQAPGKGLEWIACIYTRSSGGTYYASWAKGRFTISKDNSKNTLYLQMNSLRAEDTAVYYCAKGRSSYRLNLWGQGTLVTVSS
VL: DIQMTQSPSTLSASVGDRVTIKCQASQSISNELSWYQQKPGKAPKLLIYRASTLESGVSSRFSGSGSGTEFTLTISSLQPDDFATYYCQSTFYGDYGNAFGGGTKVEIK
notes: Humanized 70H1
B19 yielded an EC50 in assay [3] of 1.17 nM.

B20: 70H1-VH3VL3 (antibody, V domains shown)
VH: B19 VH with T28S, Y97F
VL: B19 VL with A43P
notes: Humanized 70H1
With B20, a half-maximal response in assay [3] (EC50) required 1.01 nM.

B21: 70H1-VH2VL3 (antibody, V domains shown)
VH: B19 VH
VL: B19 VL with A43P
notes: Humanized 70H1
The molecule B21 showed an EC50 in assay [3] of 1.05 nM.

B22: 70H1-VH1VL3 (antibody, V domains shown)
VH: B19 VH with Q2V, I49V, A50S, K74R
VL: B19 VL with A43P
notes: Humanized 70H1
For the molecule B22, in assay [3], the EC50 turned out to be 1.76 nM.

B23: 70H1-VH2VL1 (antibody, V domains shown)
VH: B19 VH
VL: B19 VL with K22T, S59P
notes: Humanized 70H1
For B23, the EC50 in assay [3] is 1.09 nM.

B24: 70H1-VH3VL2 (antibody, V domains shown)
VH: B19 VH with T28S, Y97F
VL: B19 VL
notes: Humanized 70H1
As for B24, a half-maximal response in assay [3] (EC50) required 0.64 nM.

B25: 70H1-VH1VL1 (antibody, V domains shown)
VH: B19 VH with Q2V, I49V, A50S, K74R
VL: B19 VL with K22T, S59P
notes: Humanized 70H1
As to B25, in assay [3], a half-maximal effect (EC50) was put at 1.04 nM.

B26: 70H1-VH3VL1 (antibody, V domains shown)
VH: B19 VH with T28S, Y97F
VL: B19 VL with K22T, S59P
notes: Humanized 70H1, the final preferred antibody
On to B26, for which, in assay [3], the EC50 turned out to be 0.23 nM.

The EC50 is the concentration at which the effect is half-maximal. Usually Kd stands for the free concentration of one partner at which half of the binding sites on the other are occupied at equilibrium, for simple one-to-one binding. Read a high Kd as a looser complex. One may read the koff as the rate constant with which the complex falls apart. Low values mean a long-lived complex, high ones a short-lived complex. The kon is a measure of how fast the partners come together. The low end stands for slow association, the high end for fast association.
